US8507443B2, “Anticancer agent” (The Research Foundation for Microbial Diseases of Osaka …, priority 2005, dated 2013)

What was measured:
HB-EGF = HB-EGF (Homo sapiens, UniProt Q99075); assay: Inhibition of binding of 125I-labeled diphtheria toxin to HB-EGF
HB-EGF, sequence (Q99075 63-148): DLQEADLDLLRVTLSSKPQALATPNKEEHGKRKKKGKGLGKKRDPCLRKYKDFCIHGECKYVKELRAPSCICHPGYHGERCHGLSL

GST-DT
activity to inhibit the binding of HB-EGF to EGFR (HB-EGF): inhibit the binding of HB-EGF to EGFR
inhibition of the binding of 125I-labeled diphtheria toxin to HB-EGF (HB-EGF): in a dose dependent manner
toxicity of diphtheria toxin (Vero cells): do not have the toxicity of diphtheria toxin substantially
